Source: patent publication US20120276193A1 (CYTOGUIDE A S, published 2012)
Blank lines part the entries; values can stand above or below the molecule they belong to.

Experiments:
[1] = molecular target: human CD163 on cells (human) (UniProt Q86VB7); assay: flow cytometry, fresh whole blood, citrate as anticoagulant
[2] = molecular target: human CD163 on cells (human) (UniProt Q86VB7); assay: flow cytometry, human mononuclear cells from buffy coats stained with Mac2-158-FITC, anti-CD14-PE and KN2/NRY-Alexa Fluor647
[3] = molecular target: human CD163 on cells (human) (UniProt Q86VB7); assay: flow cytometry, fresh whole blood, heparin as anticoagulant
[4] = molecular target: human CD163 on cells (human) (UniProt Q86VB7); assay: flow cytometry, PE mAb, CD14-ILT3+ dendritic cells in whole blood
[5] = molecular target: human CD163 on cells (human) (UniProt Q86VB7); assay: flow cytometry, R-PE mAb, fresh EDTA whole blood
[6] = molecular target: human CD163 on cells (human) (UniProt Q86VB7); assay: flow cytometry, mononuclear cells from buffy coat, Mac2-158-FITC with KN2/NRY-Alexa Fluor647
[7] = molecular target: human CD163 on cells (human) (UniProt Q86VB7); assay: quantitative flow cytometry, PBMC isolated by density gradient centrifugation
[8] = molecular target: human CD163 on cells (human) (UniProt Q86VB7); assay: quantitative flow cytometry (Quantibrite PE beads), fresh EDTA whole blood
[9] = molecular target: human CD163 on cells (human) (UniProt Q86VB7); assay: quantitative flow cytometry, fresh whole blood, heparin as anticoagulant
[10] = molecular target: human CD163 on cells (human) (UniProt Q86VB7); assay: flow cytometry, fresh whole blood, EDTA as anticoagulant
[11] = molecular target: human CD163 on cells (human) (UniProt Q86VB7); assay: 125I-labelled mAb on stable CD163 transfected Flp-In CHO cells (non-transfected cells: 1.37%)
[12] = molecular target: human CD163 on cells (human) (UniProt Q86VB7); assay: quantitative flow cytometry, fresh whole blood, citrate as anticoagulant
[13] = molecular target: human CD163 on cells (human) (UniProt Q86VB7); assay: flow cytometry, PBMC isolated by density gradient centrifugation
[14] = molecular target: human CD163 on cells (human) (UniProt Q86VB7); assay: flow cytometry, PE mAb, CD163+ peripheral blood dendritic cells
[15] = molecular target: purified recombinant CD163 immobilized on a Biacore chip (human) (UniProt Q86VB7); assay: SPR, immobilized recombinant CD163, 10 mM EDTA buffer
[16] = molecular target: human CD163 on cells (human) (UniProt Q86VB7); assay: flow cytometry, CD163high subset of peripheral blood dendritic cells; clone GHI/61 by paragraph 356
[17] = molecular target: human CD163 on cells (human) (UniProt Q86VB7); assay: 125I-labelled mAb on stable CD163 transfected Flp-In CHO cells (non-transfected cells: 1.23%)
[18] = molecular target: human CD163 on cells (human) (UniProt Q86VB7); assay: flow cytometry, CD14+ILT3+HLA-DR+ monocytes; clone GHI/61 by paragraph 356
[19] = molecular target: human CD163 on cells (human) (UniProt Q86VB7); assay: flow cytometry, CD163low subset of peripheral blood dendritic cells; clone GHI/61 by paragraph 356
[20] = molecular target: human CD163 on cells (human) (UniProt Q86VB7); assay: quantitative flow cytometry (Quantibrite PE beads), fresh EDTA whole blood, isotype control
[21] = molecular target: human CD163 on cells (human) (UniProt Q86VB7); assay: flow cytometry, peripheral blood dendritic cells, negative staining control
rat CD163 on cells (rat) [22] = molecular target: rat CD163 on cells (rat) (UniProt D3Z9U2); assay: flow cytometry, rat peritoneal macrophages stained with anti-rat CD172a-PE (ED9) and anti-rat CD163-FITC (ED2)
rat CD163 on cells (rat) [23] = molecular target: rat CD163 on cells (rat) (UniProt D3Z9U2); assay: flow cytometry, rat peritoneal macrophages, ED2-FITC
rat CD163 on cells (rat) [24] = molecular target: rat CD163 on cells (rat) (UniProt D3Z9U2); assay: flow cytometry, rat peritoneal macrophages, negative control staining with IgG-FITC
[25] = molecular target: purified recombinant CD163 immobilized on a Biacore chip (human) (UniProt Q86VB7); assay: SPR, immobilized recombinant CD163, 2 mM free Ca2+
[26] = molecular target: human CD163 on cells (human) (UniProt Q86VB7); assay: quantitative flow cytometry, fresh whole blood, EDTA as anticoagulant
[27] = molecular target: human CD163 on cells (human) (UniProt Q86VB7); assay: 125I-labelled mAb on stable CD163 transfected Flp-In CHO cells (non-transfected cells: 1.47%)
[28] = molecular target: T1, murine CD163 in solubilized murine spleen (mouse, UniProt Q2VLH6 39-1121, limits assumed); assay: western blot of solubilized murine spleen with hybridoma supernatants
T1 construct: also called non-reduced CD163
Text: The clones were screened by testing binding of supernatants to murine CD163 in solubilized murine spleen loaded on a SDS-PAGE and western blotted, using standard techniques.

purified recombinant CD163 immobilized on a Biacore chip (human), sequence (Q86VB7 42-1050 limits assumed): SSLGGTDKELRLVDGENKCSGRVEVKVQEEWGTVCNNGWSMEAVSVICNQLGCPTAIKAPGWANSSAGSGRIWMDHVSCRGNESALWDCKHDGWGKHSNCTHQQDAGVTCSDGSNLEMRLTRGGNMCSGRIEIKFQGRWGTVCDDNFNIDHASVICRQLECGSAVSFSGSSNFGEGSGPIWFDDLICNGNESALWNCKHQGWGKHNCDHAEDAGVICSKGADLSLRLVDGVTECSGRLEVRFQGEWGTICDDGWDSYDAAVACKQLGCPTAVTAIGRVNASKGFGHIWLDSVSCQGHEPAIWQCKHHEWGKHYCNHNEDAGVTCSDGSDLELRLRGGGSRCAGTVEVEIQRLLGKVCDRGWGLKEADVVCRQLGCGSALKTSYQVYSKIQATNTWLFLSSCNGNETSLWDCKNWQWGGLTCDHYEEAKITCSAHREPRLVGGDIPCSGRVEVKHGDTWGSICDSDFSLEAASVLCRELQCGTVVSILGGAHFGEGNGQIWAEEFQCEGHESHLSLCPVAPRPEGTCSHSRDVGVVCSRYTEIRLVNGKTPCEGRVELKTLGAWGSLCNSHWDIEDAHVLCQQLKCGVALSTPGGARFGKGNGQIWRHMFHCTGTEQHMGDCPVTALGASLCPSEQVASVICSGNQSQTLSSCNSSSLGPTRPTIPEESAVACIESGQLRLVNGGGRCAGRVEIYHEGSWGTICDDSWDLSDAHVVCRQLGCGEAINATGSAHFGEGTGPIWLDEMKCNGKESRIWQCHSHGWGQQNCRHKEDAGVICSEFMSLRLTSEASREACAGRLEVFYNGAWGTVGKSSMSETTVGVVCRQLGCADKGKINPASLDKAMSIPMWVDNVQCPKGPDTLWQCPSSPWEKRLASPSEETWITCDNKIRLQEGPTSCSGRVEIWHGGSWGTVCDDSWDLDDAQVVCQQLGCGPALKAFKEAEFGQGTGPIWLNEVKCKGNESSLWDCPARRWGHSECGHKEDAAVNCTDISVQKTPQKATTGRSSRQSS
T1 sequence (Q2VLH6 39-1121 limits assumed): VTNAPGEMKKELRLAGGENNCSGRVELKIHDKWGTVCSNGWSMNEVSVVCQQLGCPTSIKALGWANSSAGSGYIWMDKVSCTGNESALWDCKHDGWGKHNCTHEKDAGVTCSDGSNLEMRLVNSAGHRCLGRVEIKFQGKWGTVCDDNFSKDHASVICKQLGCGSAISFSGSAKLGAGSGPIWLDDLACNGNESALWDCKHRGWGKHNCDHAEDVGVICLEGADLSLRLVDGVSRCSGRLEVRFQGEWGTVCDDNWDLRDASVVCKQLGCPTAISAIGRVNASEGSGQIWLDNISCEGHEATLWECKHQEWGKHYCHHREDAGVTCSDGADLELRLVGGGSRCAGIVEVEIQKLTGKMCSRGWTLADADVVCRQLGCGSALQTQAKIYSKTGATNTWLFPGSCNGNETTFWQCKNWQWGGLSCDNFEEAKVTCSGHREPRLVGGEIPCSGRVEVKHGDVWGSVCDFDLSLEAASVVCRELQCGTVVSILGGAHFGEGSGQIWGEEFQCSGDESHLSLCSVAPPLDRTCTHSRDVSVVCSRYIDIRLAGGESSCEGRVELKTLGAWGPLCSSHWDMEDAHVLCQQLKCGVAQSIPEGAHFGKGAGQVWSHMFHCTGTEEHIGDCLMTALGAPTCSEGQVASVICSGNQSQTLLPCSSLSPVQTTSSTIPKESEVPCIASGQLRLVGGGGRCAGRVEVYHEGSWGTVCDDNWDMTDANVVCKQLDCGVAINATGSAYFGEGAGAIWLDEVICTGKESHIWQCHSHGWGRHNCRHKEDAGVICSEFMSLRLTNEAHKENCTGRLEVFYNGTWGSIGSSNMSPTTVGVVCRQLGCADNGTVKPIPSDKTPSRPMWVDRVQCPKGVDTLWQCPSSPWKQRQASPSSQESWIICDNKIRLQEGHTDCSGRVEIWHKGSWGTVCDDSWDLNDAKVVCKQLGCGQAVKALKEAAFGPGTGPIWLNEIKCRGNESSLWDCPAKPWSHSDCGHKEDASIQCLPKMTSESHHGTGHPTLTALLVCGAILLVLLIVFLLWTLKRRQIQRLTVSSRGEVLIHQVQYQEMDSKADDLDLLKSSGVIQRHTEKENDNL

Molecule: R-PE-conjugated Mouse IgG1, k isotype control (MCG1) (antibody)
background staining (PE antibodies bound per cell) [20]: 94 per monocyte

Molecule: Mouse IgG, PE, k isotype control, MOPC-21 (antibody)
MFI [21]: 1.23 MFI

Molecule: RM3/1 (antibody)
fraction of CD14+ monocytes stained positive for CD163 [1]: 12.5%
fraction of CD14+ monocytes stained positive for CD163 [3]: 3.33%
fraction of CD14+ monocytes stained positive for CD163 [5]: 0.33%
density of CD163 receptors per monocyte (PE antibodies bound per cell) [7]: 132 per monocyte
Kd [25]: 0.6 nM
density of CD163 receptors per monocyte (PE antibodies bound per cell) [8]: 101 per monocyte
density of CD163 receptors per monocyte (PE antibodies bound per cell) [9]: 210 per monocyte
density of CD163 receptors per monocyte (PE antibodies bound per cell) [26]: 86 per monocyte
percentage of cell-associated radioactivity [27]: 7.77%
density of CD163 receptors per monocyte (PE antibodies bound per cell) [12]: 207 per monocyte
fraction of CD14+ monocytes stained positive for CD163 [13]: 2.5%

B1: 3E10B10 (antibody, V domains shown)
VH: QVKLQESGGGLVQPKESLKISCAASGFTFSTAAMYWVRQAPGKGLDWVARIRTKPDNYATYYPASVKGRFTISRDDSKGMVYLQMDNLKTEDTAIYYCTAAYYYDGRFDYWGQGVMVTVAS
VL: DIVMTQTPSSQAVSAGERVTMRCKSSQSLLYSENKKNYLAWYQQKPGQSPKLLISWASTRESGVPDRFIGSGSGTDFTLTISSVQAEDLAVYYCDQYYDPPFTFGSGTKLEIK
notes: Rat IgG2a hybridoma antibody raised against mouse CD163 domain 1-3; also called rat anti-mouse E10B10 (IgG2a)
binding result [28]: binds

More lines, now with the values ahead:

fraction of CD14+ monocytes stained positive for CD163 [1]: 84%
share of cells in the lower right quadrant (Mac2-158-FITC positive, CD14-PE negative) [2]: 1.22%
share of cells in the lower right quadrant (Mac2-158-FITC positive, KN2/NRY-Alexa Fluor 647 negative) [2]: 4.45%
share of cells in the upper right quadrant (Mac2-158-FITC positive, CD14-PE positive) [2]: 73.9%
share of cells in the upper right quadrant (positive for both Mac2-158-FITC and KN2/NRY-Alexa Fluor 647) [2]: 70.7%
fraction of CD14+ monocytes stained positive for CD163 [3]: 84.4%
fraction of peripheral blood dendritic cells recognized [4]: 32.3%
fraction of CD14+ monocytes stained positive for CD163 [5]: 84.1%
percent of peripheral monocytes showing co-binding of KN2/NRY and Mac2-158 [6]: 70%
density of CD163 receptors per monocyte (PE antibodies bound per cell) [7]: 11400 per monocyte
density of CD163 receptors per monocyte (PE antibodies bound per cell) [8]: 17700 per monocyte
density of CD163 receptors per monocyte (PE antibodies bound per cell) [9]: 18900 per monocyte
fraction of CD14+ monocytes stained positive for CD163 [10]: 87.2%
percentage of cell-associated radioactivity [11]: 61.3%
density of CD163 receptors per monocyte (PE antibodies bound per cell) [12]: 17700 per monocyte
fraction of CD14+ monocytes stained positive for CD163 [13]: 81.1%
MFI [14]: 108 MFI
Molecule: Mac2-158 (antibody)

fraction of CD14+ monocytes stained positive for CD163 [1]: 64.4%
fraction of CD14+ monocytes stained positive for CD163 [3]: 0.82%
fraction of peripheral blood dendritic cells recognized [4]: 10.5%
Kd [15]: 29 nM
fraction of CD14+ monocytes stained positive for CD163 [5]: 63%
density of CD163 receptors per monocyte (PE antibodies bound per cell) [7]: 108 per monocyte
MFI [16]: 34.6 MFI
density of CD163 receptors per monocyte (PE antibodies bound per cell) [8]: 1030 per monocyte
density of CD163 receptors per monocyte (PE antibodies bound per cell) [9]: 58.3 per monocyte
percentage of cell-associated radioactivity [17]: 1.23%
percent of cells stained positive [18]: 88%
MFI [19]: 4.2 MFI
density of CD163 receptors per monocyte (PE antibodies bound per cell) [12]: 1150 per monocyte
fraction of CD14+ monocytes stained positive for CD163 [13]: 1.26%
MFI [14]: 22.3 MFI
Molecule: GHI/61 (antibody)

share of cells in the lower right quadrant (CD163 FITC positive, CD172a PE negative) (rat CD163 on cells (rat) [22]): 0.01%
share of cells in the upper right quadrant (CD163 FITC positive, CD172a PE positive) (rat CD163 on cells (rat) [22]): 42.9%
percent of peritoneal macrophages CD163 positive (rat CD163 on cells (rat) [23]): 42%
Molecule: ED2 (antibody)

share of cells in the lower right quadrant (IgG FITC positive) (rat CD163 on cells (rat) [24]): 0.41%
share of cells in the upper right quadrant (rat CD163 on cells (rat) [24]): 0.06%
Molecule: IgG-FITC (antibody)
